Measured values published in the supplement of paper PMC9170038.

How the values were obtained:
[1] = tested on: MS2 coat protein; experiment: apparent KD of MS2 coat protein; designed switch direction (-1 OFF switch, 1 ON switch): 1; higher = weaker reporter binding; conditions: Eterna round: R98
Experimental: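 RNA-MaP: designed FMN/MS2 RNA switches (84 nt design region) are transcribed on-chip within common flanks and titrated with SNAP-549-labelled MS2 coat protein (about 1-3000 nM) in 100 mM Tris pH 7.5, 80 mM KCl, 4 mM MgCl2, without or with 200 uM FMN. Median apparent KD per design; activation ratio = KD,OFF / KD,ON.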

[2] = tested on: MS2 coat protein; experiment: apparent KD of MS2 coat protein, switch ON state; designed switch direction (-1 OFF switch, 1 ON switch): 1; higher = weaker reporter binding; conditions: FMN input: 0 or 200 uM; Eterna round: R93 (includes R88 designs)
Procedure, shortened: (§1)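 The buffer was 100 mM Tris-HCl pH 7.5 with 80 mM KCl and 4 mM MgCl2, used without or with constant ligand. In it, RNA switches transcribed on-chip from Illumina sequencing clusters were titrated with SNAP-549-labelled MS2 coat protein in twofold steps from 0.7 or 1.5 nM to 3 µM. Apparent KD for each design is the median of its normalised cluster binding-curve fits.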

[3] = tested on: MS2 coat protein; experiment: apparent KD of MS2 coat protein, switch OFF state (with FMN for OFF switches, without FMN for ON switches); designed switch direction (-1 OFF switch, 1 ON switch): 1; higher = weaker reporter binding; conditions: FMN input: 0 or 200 uM; Eterna round: R93 (includes R88 designs)
Procedure, shortened: as §1

Sequence	apparent KD of MS2 coat protein ([1]; input ligand: FMN 200 uM) [nM]	apparent KD of MS2 coat protein ([1]; input ligand: none) [nM]	apparent KD of MS2 coat protein [2] [nM]	apparent KD of MS2 coat protein [3] [nM]
AAUAAUCAGGUAGGAUAUGCUCAGGAAUACUGAGCAGAAGGACUAGAAACCUGAGGAUCACCCAGGUAACUGGACCGGAAACGG [Same State NG1 - A3C, U17G Submission 6C]	42.3	81.1	–	–
ACGUCCCGCAGAGGAUAUGUUGUUCGGCCUACAUGAGGAUCACCCAUGUCAAAGGGCUGAUCCCGACAGAAGGCUGAAGGAUAC [Qudiator]	24.8	57.5	–	–
AUAAUAACUUGAGGAUAUCGAGUGGAAUACACUCGAGAAGGCAGGGAAACCUGAGGAUCACCCAGGUAAAUAAUAAUAAUAAUA [Same State NG1 - A3C, U17G Submission 1C]	22.7	21.3	–	–
CACAGGGAUUCAGGAUAUAUUAGCCGAGGCCGCGUAGAAGGGAAAUCCUGACAUGAGGAUCACCCAUGUUAACCCACCUUCCAU [Fingerlickinggood#3]	22.9	27.3	–	–
CCAAUAUAGUGAGGAUAUGCACAGGAUCACCGUGUAGAAGGCAUCAGGUAGAAGGUGCAGAGGAUCACCCUGUAAGGAUAUACA [pwkr2 ssNG1 DX.7]	129	406	–	–
CCCUUCAGAAGAGGGACAUGAGGAUCACCCAUGUAGGCUGCACAGGAUAUCGAUCGGAGGCGGUACGAGAAGGGUGAUGUCAUU [Riorrebi]	27.9	36.2	–	–
CGAGACACUUGAGGAUAUGCUCAGGAAUACUGAGCAGAAGGCAGGGAAACCUGAGGAUCACCCAGGUAACUGGAAAGUCUCGAA [Same State NG1 - A3C, U17G Submission 5A]	19	29.2	–	–
GACGGAUUCUUAGGAUAUGCUCAGGAAUACUGAGCAGAAGGAAGAAUAACCUGAGGAUCACCCAGGUAAUACUGAACGUCAAUA [Same State NG1 - A3C, U17G Submission 9A]	23.7	58.1	–	–
GCAAAUGGGCGAGGAUAUGGGACGGGCCUAAACAGGGCACAUGAGGAUCACCCAUGUCACACGACCCAGAAGGCGCUAAGAACG [Bemave]	144	399	–	–
GCAGAAGGUGCGGAGGAUCACCCUGUAAGGAUAUGCAUUAGCAAGGAUAUACAGAGGAUCACCCUGUAGAAGGUGCACUUCUGA [pwkr2 ssNG3 DX.8]	2120	850	–	–
GCCAACUUAUGAGGAUAUGGCACCUUAUUGGUGCCAGAAGGCAUGUCAAUUGACAUGAGGAUCACCCAUGUAUUAUAGUUGGCA [Fiskers NG1ss - 20 m2]	112	724	–	–
GCCAUCGUAUGAGGAUAUGGCACCGAAACGGUGCCAGAAGGCAUGUCAAUAGACAUGAGGAUCACCCAUGUAUUAUCGAUGGCA [MatMod 1 - Jieux - Same State NG 1]	46.9	469	–	–
GCUGUCGCGUGAGGAUAUGGUCGGCAGUGCUGACCAGAAGGCAUGUCGAUAGACAUGAGGAUCACCCAUGUGGUUAGGGCGGCU [salish99_SSNG1_R02_015]	464	491	–	–
GCUUGCGACGCAGGAUAUGGGUGCCUAAACACGAGGAUCACCCGUGUACAGGAAGCUAAAUGCUCUCAGAAGGGCGUCGCAGGC [United States 9 - Jieux - Same State NG 2]	17.5	46.7	–	–
GGAUCGCUUGGAGGAUAUCCAACUAUCCUAGUUGGAGAAGGCCAAGCUACAGAGCUAAGCUUGGAAGUCACUUCGGAUCCACAC [pwkr ssNG1 F9.4.4]	39.2	21.7	–	–
GGGAGACAUGAGGAUCACCCAUGUGAGAAGAGGCGAGGAUAUCGAAAGAAAGAAGAGAAACGAGAAGGCGCGAGUC [salish99-SS1-062]	–	–	45.2	63.4
GGUUGACGACAAUUACAUGAGGAUCACCCAUGUUGUGGGAUGCAGGAUAUGUGGUAUAUUAAUUAACAGAAGGGCAAUAAUUUU [JR_SSNG3_Sub062]	51	33.8	–	–
GUAGCAUACCGAGGAUAUUCAUACCGGAAACGGACAUGAGGAUCACCCAUGUAAAUUCUAAAUUGGGAGAAGGCGGAAUGCUAC [Xeonanis 75 6]	46.6	410	–	–
GUGGCCCAGGCACAGGAUAUGUUUCUCGUAACAUGAGGAUCACCCAUGUGCCUAUGAGAUUUAAUGCAGAAGGGUGCACGCCACG [Atiinbe]	–	–	16.4	342
GUGUAUAGCCUCGAGGAUAUCCUGUAAUGCACAUGAGGAUCACCCAUGUAUGAGCGAGUUUUUUGGGAGAAGGCGAGUUAUCGGU [JR_SS002_Sub1709]	–	–	12.9	24.2

Sequence	apparent KD of MS2 coat protein ([1]; input ligand: FMN 200 uM) [nM]	apparent KD of MS2 coat protein ([1]; input ligand: none) [nM]	apparent KD of MS2 coat protein [2] [nM]	apparent KD of MS2 coat protein [3] [nM]
UAAAAAACGUAUGAGGAUAUCCAAAAUAAAACAUGAGGAUCACCCAUGUGAAUAAAAUAACAAUGGGAGAAGGCAUACGUAUCAU [Mat - Same state - Malcolm Mod - D138]	–	–	46.3	20.8
UAAAAACAUGAGGAUCACCCAUGUAAGAUAAACACAGGAUAUGCGAAAAGAAACAAAGAAGCAGAAGGGUGAAAAU [Mat - Same State 1 - Tesla mod - 44]	–	–	17.3	64.8
UAAAAACAUGAGGAUCACCCAUGUAGAAAUAUGGGAGGAUAUACAAAGACGAAAGUCAAAGUAGAAGGCCUGAAAU [Mat - Same State 1 - Eli mod - 85]	–	–	21.5	88.7
UAACAACAUGAGGAUCACCCAUGUCAAACAGAUCGAGGAUAUGGGCAGGGUUUUCCCUAACUAGAAGGCGAAGACA [Leinxeerri]	–	–	71.1	181
UACACGCGGGCGCAGGAUAUGUCGCUGGUGACAUGAGGAUCACCCAUGUAUACCAUUGCGGUUGAGCAGAAGGGUGAGAAGCGUG [Raanlaza]	–	–	20.4	56.3
UAGAUAUGGUGAGGAUAUGCAAAGGAUCACCUUGUAGAAGGCAUCAGGGUAGAAGGUGCAAGGAUCACCUGUAAGGAUAUAUCC [pwkr2 ssNG1 DX.32]	448	1670	–	–
UAUCAUUACACGAAGGAUAUCGAUAAUAGAACAUGAGGAUCACCCAUGUGAAAUAAAAUACAGAACGAGAAGGUCGAGGGUGAAG [JR_SS002_Sub703]	–	–	19.7	16.8
UAUCAUUACACGAAGGAUAUCGAUAAUUGAACAUGAGGAUCACCCAUGUGCCAUUCUUUACAGUUCGAGAAGGUCGAGGGUGAAG [JR_SS002_Sub708]	–	–	72.7	83.5
UCACUCACGUCAGGAUAUGGAUCGGAAAACGAUCCAGAAGGGACCUGCAAACUUGAGGAUCACCCAGGUUCCAAUAACGAGUGA [SameSame 12 - Jieux - Same State NG 1]	194	307	–	–
UCCGCUAUCGCAGGAUAUUACAUGGGAAAGAAUACAUGAGGAUCACCCAUGUAAAAGAUCAUAAAUAAGAAGGGCGAUAGCGGA [Lame State 8 - Jieux - Same State NG 2]	123	654	–	–
UGAAGACAUGAGGAUCACCCAUGUGGGAUUAUGGGAGGAUAUACAAAGACGAGAGUCAGAGUAGAAGGCCUAGGAA [salish99-ss1-116(!)]	–	–	36.1	68
UGAAGACAUGAGGAUCACCCAUGUGGGAUUAUGGGAGGAUAUACAAAGACGAGAGUCAGAGUAGAAGGCCUAGGAC [salish99-ss1-119(!)]	–	–	32.2	72.9
UGGAGACAUGAGGAUCACCCAUGUGAGAAGAGGCGAGGAUAUCGAAAGAAAGAAGAGAAACGAGAAGGCGCGAGGG [salish99-SS1-043]	–	–	49.7	52.1
UGGAGACAUGAGGAUCACCCAUGUGAGAAGAGGCGAGGAUAUCGAAAGAAAGAAGAGAAACGAGAAGGCGCGAGUA [salish99-SS1-038]	–	–	32.1	39.3
UUCAAAGGGUGAGGAUAUGCACAGGAUCACCGUGUAGAAGGCAUCAGGUAGAAGGUGCAGAGGAUCACCCUGUAAGGAUAUAUC [pwkr2 ssNG1 DX.15]	719	1020	–	–
UUGCAGUACGGGUAGGAUAUGUAGGGUGGUACAUGAGGAUCACCCAUGUGUCCACCCUUCGACCGGCAGAAGGGCCUGUCACUGC [Lerieseser]	–	–	17.5	17.3
UUUAAUUAUACGAAGGAUAUCGGUAAUUAGACAUGAGGAUCACCCAUGUUAUAAGGUUCCAUAUUCGAGAAGGUCGCGGGUGAAC [JR_SS002_Sub509]	–	–	16.1	18.2
UUUAAUUAUACGAAGGAUAUCGGUAAUUAGACAUGAGGAUCACCCAUGUUAUAUGGUUAAAUAUUCGAGAAGGUCGAGGGUGAAA [JR_SS002_Sub506]	–	–	30.2	32.1
UUUAAUUAUACGAAGGAUAUCGGUAAUUAGACAUGAGGAUCACCCAUGUUAUAUGGUUAAAUAUUCGAGAAGGUCGCGGGUGAAC [JR_SS002_Sub507]	–	–	47.8	33.6
UUUAGCUGCGGGCAGGAUAUGUAUUAAAAUACAUGAGGAUCACCCAUGUGCAGGUGUAACACCUGACAGAAGGGCCAAUCGCGGC [Bequre]	–	–	25	193
